The values below come from patent publication US20260234234A1 (QILU PUGET SOUND BIOTHERAPEUTICS, published 2026).

The target in assay [1] is T1, Avitag_c-MYC_His6-tagged hIL-33 (Ser112-Thr270), QB10975 (human).
T1 construct: Entry includes N-terminal Avitag, c-MYC and His6 tags; reduced with DTT to the active form; also called active hIL-33; reduced hIL-33
T1 chain: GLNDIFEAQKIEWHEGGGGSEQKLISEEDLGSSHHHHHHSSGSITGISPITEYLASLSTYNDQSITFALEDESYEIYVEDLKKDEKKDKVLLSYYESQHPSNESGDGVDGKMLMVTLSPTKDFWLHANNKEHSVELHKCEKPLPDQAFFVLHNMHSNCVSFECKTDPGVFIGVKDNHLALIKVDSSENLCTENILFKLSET
Nature of the assay: SPR, captured antibody, hIL-33 analyte, 37 C, 1:1 fit. Background: SPR reads the build-up and loss of mass on a sensor chip optically.

The target of assay [2] is T2, His6-tagged cyIL-33 (Ser112-Ile270), QB10976 (cynomolgus monkey).
T2 construct: Entry includes N-terminal Avitag, FLAG and His6 tags; isoform X1, NCBI XP_005581824; also called cyIL-33 antigen
T2 chain: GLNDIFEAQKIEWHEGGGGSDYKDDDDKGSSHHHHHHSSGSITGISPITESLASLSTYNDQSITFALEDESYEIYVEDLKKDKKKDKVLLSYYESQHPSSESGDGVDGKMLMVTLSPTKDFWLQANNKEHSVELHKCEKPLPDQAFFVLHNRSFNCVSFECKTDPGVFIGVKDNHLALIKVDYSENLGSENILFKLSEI
Put plainly: SPR, captured antibody, cyIL-33 analyte, 25 C, 1:1 fit.

In assay [3] the target is T1, Avitag_c-MYC_His6-tagged hIL-33 …. Put plainly: SPR competition, antibody titrated against 10 nM hIL-33, over immobilised hST2-Fc.
In assay [4] the target is T3, Avitag_c-MYC_His6_hTSLP QB11631 with mutations of R127A + R130S (human).
T3 construct: Substitutions and tags already in the entry; also called hTSLP (R127A+R130S)
Nature of the assay: SPR (Biacore).

Assay [5] has as its target Avitag_c-MYC_His6_hTSLP (wild type) QB11630 (human). Put plainly: cell-based or functional assay.
For assay [6], the target named is T4, Avitag_c-MYC_His6_hTSLP QB11033 with deletion of 126KRRKR130 (human).
T4 chain: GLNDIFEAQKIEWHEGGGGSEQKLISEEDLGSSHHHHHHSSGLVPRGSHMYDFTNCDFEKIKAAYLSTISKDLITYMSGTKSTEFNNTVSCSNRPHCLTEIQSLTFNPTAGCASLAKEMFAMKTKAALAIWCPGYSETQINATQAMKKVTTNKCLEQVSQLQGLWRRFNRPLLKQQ
Nature of the assay: cell-based or functional assay.

Assay [7] concerns the target T3, Avitag_c-MYC_His6_hTSLP QB11631 with …. Nature of the assay: cell-based or functional assay.
For assay [8], the target named is T5, Avitag_FLAG_His6_cyTSLP QB11632 (wild type) (cynomolgus monkey).
T5 chain: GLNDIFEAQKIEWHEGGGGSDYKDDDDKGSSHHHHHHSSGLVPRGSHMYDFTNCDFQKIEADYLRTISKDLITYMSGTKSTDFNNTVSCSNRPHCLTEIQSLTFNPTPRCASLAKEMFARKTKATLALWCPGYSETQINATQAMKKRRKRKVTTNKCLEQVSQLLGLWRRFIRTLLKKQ
Put plainly: cell-based or functional assay.

Assay [9] addresses T6, Avitag_FLAG_His6_cyTSLP QB10974 with deletion of 126KRRKR130 (cynomolgus monkey).
T6 chain: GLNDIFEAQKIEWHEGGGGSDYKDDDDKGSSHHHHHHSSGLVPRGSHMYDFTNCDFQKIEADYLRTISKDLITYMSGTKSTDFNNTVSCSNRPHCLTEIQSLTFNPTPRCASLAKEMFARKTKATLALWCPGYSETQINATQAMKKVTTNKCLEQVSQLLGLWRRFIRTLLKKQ
Put plainly: cell-based or functional assay.

Assay [10] deals with T7, Avitag_FLAG_His6_cyTSLP QB11633 with mutations of R127A + R130S (cynomolgus monkey).
T7 chain: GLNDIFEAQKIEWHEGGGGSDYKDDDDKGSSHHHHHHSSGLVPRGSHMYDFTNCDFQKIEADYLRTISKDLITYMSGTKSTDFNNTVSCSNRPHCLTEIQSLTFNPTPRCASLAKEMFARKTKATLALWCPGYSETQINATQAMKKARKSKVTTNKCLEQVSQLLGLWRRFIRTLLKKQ
Nature of the assay: cell-based or functional assay.

Assay [11] addresses T3, Avitag_c-MYC_His6_hTSLP QB11631 with …. Put plainly: SPR (Biacore), hTSLP (R127A+R130S) antigen.
Assay [12] deals with Avitag_c-MYC_His6_hTSLP (wild type) QB11630 (human). Nature of the assay: cell-based or functional assay. This is another data set of the same source.
For assay [13], the target named is T4, Avitag_c-MYC_His6_hTSLP QB11033 with …. Put plainly: cell-based or functional assay.
Assay [14] addresses T3, Avitag_c-MYC_His6_hTSLP QB11631 with …. Nature of the assay: cell-based or functional assay. This is another data set of the same source.
For assay [15], the target named is T5, Avitag_FLAG_His6_cyTSLP QB11632 (wild …). Put plainly: cell-based or functional assay.
Assay [16] addresses T6, Avitag_FLAG_His6_cyTSLP QB10974 with …. Put plainly: cell-based or functional assay.
The target of assay [17] is T7, Avitag_FLAG_His6_cyTSLP QB11633 with …. Nature of the assay: cell-based or functional assay.
For assay [18], the target named is T2, His6-tagged cyIL-33 (Ser112-Ile270), …. Nature of the assay: SPR, cyIL-33 analyte.
Assay [19] concerns the target T8, hIL-33 used in the cell-based assays of Example 13 (human, UniProt O95760 112-270).
T8 sequence (looked up): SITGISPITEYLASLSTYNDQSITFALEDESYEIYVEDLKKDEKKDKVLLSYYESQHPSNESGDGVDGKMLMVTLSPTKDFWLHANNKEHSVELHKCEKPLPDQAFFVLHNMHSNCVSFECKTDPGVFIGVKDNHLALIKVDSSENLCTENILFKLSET
Nature of the assay: cell-based or functional assay.

The target of assay [20] is T2, His6-tagged cyIL-33 (Ser112-Ile270), …. Put plainly: cell-based or functional assay.
For assay [21], the target named is hTSLP antigen, version not stated (human, UniProt Q969D9 29-159, limits assumed). Put plainly: cell-based or functional assay.

Like-named read-outs stand apart in the source and are kept apart here.

B1: humanized anti-hIL-33 antibody QB11004 (antibody, human IgG1, kappa, V domains shown)
VH: EVQLLESGGGLVQPGGSLRLSCAASGFTFYSSAMSWVRQTQGKGLEWVSTISSGGSNTYYPDSVKGRFTISRDNSKNTLYLQMNSLGAEDTAVYYCASAYYGRRYDAMDYWGQGTLVTVSS
VL: DVVMTQSPPSLPVTLGQSASISCKSSKSLLHSNGNTYLYWFQQRPGQSPQLLIYRMSNLASGVPDRFSGSGSGTDFTLKISRVEAEDVGVYYCMQHLENPYTFGQGTKVEIKR
As usually defined, the Kd is the concentration at which binding is half-saturated. As usually defined, the koff is a measure of how fast the partners let go of each other. The kon is the second-order rate constant of association. For orientation: IC50 means the concentration that inhibits the measured activity by half. In [1], B1 registered a Kd of 0.387 nM, a koff of 0.000628 s⁻¹ and a kon of 1.62e+06 M⁻¹ s⁻¹. In [2], this molecule gave a Kd of 6.22 nM, a koff of 0.000992 s⁻¹ and an on-rate (kon) of 160000 M⁻¹ s⁻¹. The molecule further gave a 50% inhibitory concentration (IC50) in assay [3] of 0.927 nM.

B2: anti-hIL-33 antibody QB11119 (antibody, human IgG1, kappa, L234A L235A, V domains shown)
VH: EVQLLESGGGLVQPGGSLRLSCAASGFTFYSSAMSWVRQTQGKGLEWVSTISSGGSNTYYPDSVKGRFTISRDNSKNTLYLQMNSLGAEDTAVYYCASAYYGRRYDAMDYWGQGTLVTVSS
VL: DVVMTQSPPSLPVTLGQSASISCKSSKSLLHSNANTYLYWFQQRPGQSPQLLIYRMSNLASGVPDRFSGSGSGTDFTLKISRVEAEDVGVYYCMQHLENPYTFGQGTKVEIKR
notes: hIgG1 with L234A+L235A+P329A; G29A in the VL against QB11061; also called parental antibody QB11119
In [1], B2 showed a Kd of 0.397 nM, an off-rate (koff) of 0.000604 s⁻¹ and a kon of 1.52e+06 M⁻¹ s⁻¹. In assay [2], this molecule came in with a Kd of 15.8 nM, a koff of 0.00206 s⁻¹ and an on-rate (kon) of 131000 M⁻¹ s⁻¹.

B3: anti-hIL-33 antibody QB11061 (antibody, human IgG1, kappa, V domains shown)
VH: EVQLLESGGGLVQPGGSLRLSCAASGFTFYSSAMSWVRQTPGKGLEWVSTISSGGSNTYYPDSVKGRFTISRDNSKNTLYLQMNSLGAEDTAVYYCASAYYGRRYDAMDYWGQGTLVTVSS
VL: DVVMTQSPPSLPVTLGQSASISCKSSKSLLHSNGNTYLYWFQQRPGQSPQLLIYRMSNLASGVPDRFSGSGSGTDFTLKISRVEAEDVGVYYCMQHLENPYTFGQGTKVEIKR
notes: QB11004 with Q41P in VH-FW2
For the molecule B3, in assay [1], binding was characterised by a dissociation constant (Kd) of 0.306 nM, the koff was 0.000567 s⁻¹ and the kon amounted to 1.85e+06 M⁻¹ s⁻¹. Also, in assay [2], the Kd came out at 4.75 nM, the dissociation rate constant (koff) worked out at 0.000893 s⁻¹ and the kon came to 188000 M⁻¹ s⁻¹.

B4: anti-hTSLP antibody QB11341, humanized clone 135F1 (antibody, human IgG4 S228P, kappa, V domains shown)
VH: EVQLVESGGGLVQPGGSLRLSCAASGFDFSSYWISWVRQAPGKGPEWIASIDIDIDIADYASWAKGRFTISRDNSKNTLYLQMNSLRAEDTAVYYCVRNLGLWGPGTLVTVSS
VL: DIQMTQSPSSLSASVGDRVTITCQSSQNVYDKDALAWYQHKPGKRPKLLIYEASKLASGVPSRFSGSGSGTHFTLTISSLQPEDAATYYCAGTFIDNIYTFGGGTKVEIKR
notes: also called QB1341; top clone
In the case of B4, in assay [4], the “fold lower binding affinity against comparator antibody QB10985” value is approximately 10 fold. Besides, the “IC50 (nM) for inhibition of CCL17 secretion” value in assay [5] stood at 0.333 nM; in [6], 0.361 nM; in assay [7] it was 0.626 nM; in assay [8], 0.888 nM; in [9] it was 0.712 nM; in assay [10] it was 0.93 nM. Moreover, the dissociation constant Kd in assay [11] came out at 1.76 nM. Further, the koff in assay [11] is 0.00148 s⁻¹. Further, the kon in assay [11] is 842000 M⁻¹ s⁻¹.

B5: anti-hTSLP antibody QB11548, humanized clone 135F1 after yeast display (antibody, human IgG4 S228P, kappa, V domains shown)
VH: EVQLVESGGGLVQPGGSLRLSCAASGFDFSSYWISWVRQAPGKGPEWIASIDIDIDIADYASWAKGRFTISRDNSKNTLYLQMNSLRAEDTAVYYCVRNLGLWGPGTLVTVSS
VL: DIQMTQSPSSLSASVGDRVTITCQSSQNVYDKDALAWYQHKPGKRPKLLIYEASRLASGVPSRFSGSGSGTHFTLTISSLQPEDAATYYCAGTRIDNIYTFGGGTKVEIKR
Consider B5, for which the “IC50 (nM) for inhibition of CCL17 secretion” value amounted to 0.0757 nM in [12]; 0.0921 nM in [13]; 0.286 nM in assay [14]; 0.254 nM in [15]; 0.251 nM in [16]; 0.464 nM in [17].

B6: anti-hIL-33 IgG4 antibody QB11465 (antibody)
heavy: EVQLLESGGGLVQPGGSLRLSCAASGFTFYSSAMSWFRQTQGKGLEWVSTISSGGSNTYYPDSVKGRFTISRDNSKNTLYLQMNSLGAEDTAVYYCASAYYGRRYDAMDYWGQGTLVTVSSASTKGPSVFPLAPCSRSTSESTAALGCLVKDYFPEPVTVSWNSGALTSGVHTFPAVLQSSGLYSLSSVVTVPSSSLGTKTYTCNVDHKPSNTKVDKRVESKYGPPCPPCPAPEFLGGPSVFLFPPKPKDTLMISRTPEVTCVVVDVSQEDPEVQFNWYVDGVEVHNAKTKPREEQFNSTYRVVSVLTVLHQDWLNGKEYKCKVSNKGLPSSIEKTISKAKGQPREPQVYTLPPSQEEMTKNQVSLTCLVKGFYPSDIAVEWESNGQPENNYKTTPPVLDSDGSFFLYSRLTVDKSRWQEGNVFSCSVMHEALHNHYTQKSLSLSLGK
light: DVVMTQSPPSLPVTLGQSASISCKSSESLLHSNANTYLYWFQQRPGQSPQLLIYRGSNLASGVPDRFSGSGSGTDFTLKISRVEAEDVGVYYCMQHLRNPYTFGQGTKVEIKRTVAAPSVFIFPPSDEQLKSGTASVVCLLNNFYPREAKVQWKVDNALQSGNSQESVTEQDSKDSTYSLSSTLTLSKADYEKHKVYACEVTHQGLSSPVTKSFNRGEC
notes: also called lead anti-hIL-33 IgG4 antibody
Consider B6, for which, in assay [18], the “fold improvement of affinity against parental antibody QB11119” value was approximately 3 fold. In [19], the “IC50, inhibition of hIL-33-induced IFNγ secretion from primary human NK cells” value stood at 1 nM; the “IC50, inhibition of hIL-33-induced hIL-5 secretion from primary human ILC2 cells” value is 2.39 nM; the “IC50, inhibition of hIL-33-induced p38 MAPK phosphorylation in ILC2s (FIG. 17C)” value turned out to be 0.33 nM; the “IC50, inhibition of hIL-33-induced p38 MAPK phosphorylation in ILC2s (FIG. 17D)” value was determined as 0.82 nM. Moreover, in assay [20], the “IC50, inhibition of cyIL-33-induced p38 MAPK phosphorylation in ILC2s (FIG. 17D)” value turned out to be 4.4 nM. Moreover, in assay [1], the dissociation constant Kd was 0.209 nM, the koff stood at 0.000695 s⁻¹ and the association rate constant (kon) worked out at 3.33e+06 M⁻¹ s⁻¹. In [2], the Kd was determined as 5.14 nM, the koff was found to be 0.00191 s⁻¹ and the kon amounted to 371000 M⁻¹ s⁻¹.

B7: rabbit anti-hTSLP monoclonal antibody clone 135F1 (antibody, V domains shown)
VH: QEQLEESGGDLVKPEGSLTLTCKASGFDFSSYWISWVRQAPGKRPEWIACIDSDIDSADYASWAKGRFTMSRTSSTTVTLQMTSLTAADTATYFCVRNLGLWGPGTLVTVSS
VL: AQVLTQTASPVSAAVGGTVTINCQSSQNVYDKDALAWYQHKPGQRPKLLIYEASKLASGVPSRFSGSGAGTQFTLTISGVQCDDAATYYCAGTFIDNIYTFGGGTEVVVKG
Turning to B7, the “IC50, inhibition of hTSLP-induced CCL17 release from human monocytes” value in assay [21] came out at 4.24 nM.
